Laboratory results as given in PMC8151781, “Ca^2+ Regulates ERp57-Calnexin Complex Formation” (Molecules, 2021).

B1: human ERp57 (residues 25-505) (enzyme, UniProt P30101 25-505, looked up)
chain: SDVLELTDDNFESRISDTGSAGLMLVEFFAPWCGHCKRLAPEYEAAATRLKGIVPLAKVDCTANTNTCNKYGVSGYPTLKIFRDGEEAGAYDGPRTADGIVSHLKKQAGPASVPLRTEEEFKKFISDKDASIVGFFDDSFSEAHSEFLKAASNLRDNYRFAHTNVESLVNEYDDNGEGIILFRPSHLTNKFEDKTVAYTEQKMTSGKIKKFIQENIFGICPHMTEDNKDLIQGKDLLIAYYDVDYEKNAKGSNYWRNRVMMVAKKFLDAGHKLNFAVASRKTFSHELSDFGLESTAGEIPVVAIRTAKGEKFVMQEEFSRDGKALERFLQDYFDGNLKRYLKSEPIPESNDGPVKVVVAENFDEIVNNENKDVLIEFYAPWCGHCKNLEPKYKELGEKLSKDPNIVIAKMDATANDVPSPYEVRGFPTIYFSPANKKLNPKKYEGGRELSDFISYLQREATNPPVIQEEKPKKKKKAQEDL
notes: ERp57 (protein disulfide isomerase family member), human, residues 25-505; Cloned into the NdeI and BamHI sites of pET15b; also called wild-type ERp57
B2: luminal domain of human calnexin (residues 21-481) (domain or fragment, UniProt P27824 21-481, looked up)
chain: HDGHDDDVIDIEDDLDDVIEEVEDSKPDTTAPPSSPKVTYKAPVPTGEVYFADSFDRGTLSGWILSKAKKDDTDDEIAKYDGKWEVEEMKESKLPGDKGLVLMSRAKHHAISAKLNKPFLFDTKPLIVQYEVNFQNGIECGGAYVKLLSKTPELNLDQFHDKTPYTIMFGPDKCGEDYKLHFIFRHKNPKTGIYEEKHAKRPDADLKTYFTDKKTHLYTLILNPDNSFEILVDQSVVNSGNLLNDMTPPVNPSREIEDPEDRKPEDWDERPKIPDPEAVKPDDWDEDAPAKIPDEEATKPEGWLDDEPEYVPDPDAEKPEDWDEDMDGEWEAPQIANPRCESAPGCGVWQRPVIDNPNYKGKWKPPMIDNPSYQGIWKPRKIPNPDFFEDLEPFRMTPFSAIGLELWSMTSDIFFDNFIICADRRIVDDWANDGWGLKKAADGAAEPGVVGQMIEAAEERP
notes: calnexin (CNX), human, luminal domain, residues 21-481; pET15b construct; the N-terminal His tag was removed from the plasmid and a His tag added at the C-terminus; also called CNX; ER-luminal domain of CNX

Assays:
Conditions in all cases: both partners purified
[1] = biological target: B2; assay: ITC; ERp57 (370 μM) in the syringe titrated into CNX (25 μM) in the cell; 20 mM HEPES pH 7.2, 100 mM NaCl, without Ca2+, 15 °C; one-set-of-sites model
[2] = biological target: B2; assay: ITC; ERp57 (370 μM) in the syringe titrated into CNX (25 μM) in the cell; 20 mM HEPES pH 7.2, 100 mM NaCl, with 1 mM CaCl2, 15 °C; one-set-of-sites model
[3] = biological target: B1; assay: ITC; ERp57 (370 μM) in the syringe titrated into CNX (25 μM) in the cell; 20 mM HEPES pH 7.2, 100 mM NaCl, without Ca2+, 15 °C; one-set-of-sites model
[4] = biological target: B1; assay: ITC; ERp57 (370 μM) in the syringe titrated into CNX (25 μM) in the cell; 20 mM HEPES pH 7.2, 100 mM NaCl, with 1 mM CaCl2, 15 °C; one-set-of-sites model

Binder: B1
- dH [1]: -3.31 kcal/mol
- dH [2]: -3.81 kcal/mol

Binder: B2
- Kd [3]: 880 nM
- Kd [4]: 1520 nM
